# Results from IntAct's records for PubMed 27905398.
# B1: Zinc finger CCHC domain-containing protein 8 (Homo sapiens), Q6NZY4 (parent)
# chain: MAAEVYFGDLELFEPFDHPEESIPKPVHTRFKDDDGDEEDENGVGDAELRERLRQCEETIEQLRAENQELKRKLNILTRPSGILVNDTKLDGPILQILFMNNAISKQYHQEIEEFVSNLVKRFEEQQKNDVEKTSFNLLPQPSSIVLEEDHKVEESCAIKNNKEAFSVVGSVLYFTNFCLDKLGQPLLNENPQLSEGWEIPKYHQVFSHIVSLEGQEIQVKAKRPKPHCFNCGSEEHQMKDCPMPRNAARISEKRKEYMDACGEANNQNFQQRYHAEEVEERFGRFKPGVISEELQDALGVTDKSLPPFIYRMRQLGYPPGWLKEAELENSGLALYDGKDGTDGETEVGEIQQNKSVTYDLSKLVNYPGFNISTPRGIPDEWRIFGSIPMQACQQKDVFANYLTSNFQAPGVKSGNKRSSSHSSPGSPKKQKNESNSAGSPADMELDSDMEVPHGSQSSESFQFQPPLPPDTPPLPRGTPPPVFTPPLPKGTPPLTPSDSPQTRTASGAVDEDALTLEELEEQQRRIWAALEQAESVNSDSDVPVDTPLTGNSVASSPCPNELDLPVPEGKTSEKQTLDEPEVPEIFTKKSEAGHASSPDSEVTSLCQKEKAELAPVNTEGALLDNGSVVPNCDISNGGSQKLFPADTSPSTATKIHSPIPDMSKFATGITPFEFENMAESTGMYLRIRSLLKNSPRNQQKNKKASE
# partner: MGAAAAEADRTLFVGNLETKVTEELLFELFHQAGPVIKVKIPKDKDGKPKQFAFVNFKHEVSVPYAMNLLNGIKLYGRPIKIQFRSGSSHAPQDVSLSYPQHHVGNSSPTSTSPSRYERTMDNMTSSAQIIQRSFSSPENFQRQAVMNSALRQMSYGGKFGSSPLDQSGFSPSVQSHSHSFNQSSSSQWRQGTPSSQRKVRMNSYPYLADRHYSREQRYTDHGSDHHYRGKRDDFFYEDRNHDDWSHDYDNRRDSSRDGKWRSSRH
# B2: RNA-binding protein 7 (Homo sapiens), Q9Y580 (parent)
# chain: B1 partner
# partner: B1 chain
# Variants of: B1
# Details: with rbm7_human RBM7, Q9Y580
row,effect of a mutation on the interaction,Variant
1,disrupting interaction strength,L295E;L299E
2,disrupting interaction strength,F309A;M313E

# Variants of: B2
# Details: with zchc8_human ZCCHC8, Q6NZY4
row,effect of a mutation on the interaction,Variant
1,decreasing interaction strength,Y65A;L69E
2,decreasing interaction strength,L25E;L29E
